Drawing on publication PMC9838529, “The neoepitope of the complement C5b-9 Membrane Attack Complex is formed by proximity of adjacent ancillary regions of C9” (Communications Biology, 2023), this text covers binding result and koff for 3 molecules.

Data set [1] concerns the molecule itself. The data set is described as follows: SEC; analytical size exclusion (Superdex 200 Increase 5/150 GL) of C9 after the polyC9 reaction (10 mM HEPES pH 7.2, 50 mM NaCl, overnight at 37 °C); oligomer in the void volume (~1.2 mL), monomer at ~2.1 mL. A general note: In gel filtration, larger molecules generally elute earlier.
The target in data set [2] is T1, whole MAC (C5b6, C7, C8αβγ, human C9) formed on liposomes (Homo sapiens).
T1 construct: C5b of C5b6: beta chain of complement C5; C5b of C5b6: alpha' chain of complement C5 (alpha chain without C5a); complement component C6 of C5b6; complement component C7; complement component C8 alpha chain; complement component C8 beta chain; complement component C8 gamma chain; complement component C9, human, wild type, as in m8; oligomeric in the MAC; also called C5b-9; oligomeric human C9 …
The data set can be described thus: far-Western, overlay or dot blot; slot immunoblot of MAC formed on liposomes from C5b6 (1 to 16.8 nM), C7 30 nM, C8 30 nM, C9 7 nM; probed with aE11. The note with it: both partners purified.

The target in data set [3] is T2, polyC9 (in vitro homo-oligomerised human C9, wild type) (human).
T2 construct: complement component C9, human, wild type, cloned in pSecTag2A; Tag-less purification; also called oligomeric C9; wild type oligomeric C9; source: Expi293F, purified (DEAE, CHT, SEC); oligomerised by incubating 1 mg/mL C9 overnight at 37 °C; copies: 22
The data set is described as follows: SPR; aE11 IgG amine-coupled to a CM5 chip (~700 RU), polyC9 as analyte; Biacore T200, 25 °C; 10 mM HEPES-NaOH pH 7.2, 150 mM NaCl, 1 mM EDTA, 0.005% P20; multi-cycle kinetics; maximum response as relative measure; one-to-one model disregarding multivalency. To be noted: both partners purified.

T2 sequence (chain, as listed by the source): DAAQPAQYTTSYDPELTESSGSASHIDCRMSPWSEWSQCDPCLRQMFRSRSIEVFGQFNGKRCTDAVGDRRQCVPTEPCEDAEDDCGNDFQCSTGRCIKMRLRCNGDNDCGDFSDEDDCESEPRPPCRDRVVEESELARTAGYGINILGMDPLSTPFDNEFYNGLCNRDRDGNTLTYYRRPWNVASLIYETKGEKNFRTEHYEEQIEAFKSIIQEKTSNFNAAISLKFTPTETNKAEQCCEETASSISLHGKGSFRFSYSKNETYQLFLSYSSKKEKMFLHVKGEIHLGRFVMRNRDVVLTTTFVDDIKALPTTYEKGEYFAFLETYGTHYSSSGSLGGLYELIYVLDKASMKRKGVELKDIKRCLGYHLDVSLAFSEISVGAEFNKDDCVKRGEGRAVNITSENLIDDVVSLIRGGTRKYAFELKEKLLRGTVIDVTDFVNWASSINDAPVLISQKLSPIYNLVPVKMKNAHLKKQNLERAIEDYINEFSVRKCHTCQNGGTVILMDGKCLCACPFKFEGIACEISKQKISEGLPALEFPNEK
T1 sequence (P02748 22-559): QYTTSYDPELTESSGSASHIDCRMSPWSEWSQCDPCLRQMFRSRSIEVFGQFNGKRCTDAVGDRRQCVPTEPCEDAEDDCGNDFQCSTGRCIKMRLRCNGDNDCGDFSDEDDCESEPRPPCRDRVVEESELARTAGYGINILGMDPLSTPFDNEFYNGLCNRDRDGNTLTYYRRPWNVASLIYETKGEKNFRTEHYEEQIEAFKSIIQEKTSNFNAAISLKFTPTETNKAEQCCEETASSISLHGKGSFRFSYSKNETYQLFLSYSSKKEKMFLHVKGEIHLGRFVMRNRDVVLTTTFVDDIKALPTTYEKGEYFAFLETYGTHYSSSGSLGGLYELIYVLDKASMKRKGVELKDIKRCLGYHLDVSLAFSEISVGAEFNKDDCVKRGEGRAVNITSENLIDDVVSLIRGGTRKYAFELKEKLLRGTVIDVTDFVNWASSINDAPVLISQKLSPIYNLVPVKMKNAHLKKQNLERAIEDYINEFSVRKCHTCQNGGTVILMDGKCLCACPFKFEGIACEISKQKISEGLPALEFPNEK

B1: human complement C9 V68E (natural protein)
chain: not shown
notes: complement component C9, human, human-to-murine point mutant; source: Expi293F, purified tag-less (anion exchange, CHT, SEC)
B1: in data set [1], the binding result was “binds”.

B2: aE11 IgG (antibody, V domains shown)
VH: QVQLKESGPGLVAPSQSLSITCTVSGFSLTVYGVNWIRQPPGKGLEWLGMIWGDGSTDYNSALKSRLSITKDNSKSQVFLKMNSLQTDDTARYYCARDRSYGGSSAWFGYWGQGTLVTVSA
VL: DIQMTQTTSSLSASLGDRVTISCRASHDISNYLNWYQQKPDGTLKLLIYYTSRLHSGVPSRFSGSGSGTDYSLTISNLEQEDVATYFCQQGNYLPYTFGGGTKLEIK
notes: heavy chain of mouse monoclonal aE11; variable region as the heavy chain of m1 in PDB 8DE6; light chain (kappa) of mouse monoclonal aE11; variable region as the light chain of m1 in PDB 8DE6; also called monoclonal aE11; full aE11 IgG; source: purified from hybridoma supernatant by protein G chromatography
Turning to B2, the binding result in data set [2] is “binds”. Also, the koff in data set [3] was ~1e-06 s⁻¹.

B3: human complement C9 R65Q/V68E/P72E (natural protein)
chain: not shown
notes: complement component C9, human, human-to-murine triple mutant; also called triple mutant; source: Expi293F, purified tag-less (anion exchange, CHT, SEC)
Regarding B3, the binding result in data set [1] is “binds”.

In general, koff refers to a measure of how fast the partners let go of each other. Low readings indicate slow dissociation, high ones fast dissociation.
